Consider 3 molecules from patent US20230303658A1 (published 2023).

The target of assay [1] is T1, CD16V protein (extracellular portion of CD16A V158 with C-terminal FLAG sequence) (human, UniProt P08637 19-208).
T1 construct: Soluble protein from ExpiCHO-S cells, purified on anti-FLAG gel
Description: ELISA: EpCAM coated, anti-EpCAM antibody captured, FLAG-tagged CD16V protein titrated, anti-FLAG-HRP detection.
Description: (§1) After incubation at room temperature for one hour, the plate was washed with TBS-T. Next, 20 μL of horseradish peroxidase-labeled anti-FLAG (registered trademark) M2 antibody diluted with the diluent was added to each well as a detection antibody. After incubating at room temperature for one hour, the plate was washed with TBS-T. After adding TMB+Substrate-Chromogen and incubating, the reaction was stopped by adding 1M sulfuric acid, and the absorbance at 450 nm and reference wavelength were measured using Infinite 200 PRO.

The target in assay [2] is T2, CD16V_K128E_K131D (human, UniProt P08637 19-208).
T2 construct: Soluble FLAG-tagged mutant
T2 sequence (P08637 other isoform, or with tags, fused parts or gaps K128E K131D K128E K131D): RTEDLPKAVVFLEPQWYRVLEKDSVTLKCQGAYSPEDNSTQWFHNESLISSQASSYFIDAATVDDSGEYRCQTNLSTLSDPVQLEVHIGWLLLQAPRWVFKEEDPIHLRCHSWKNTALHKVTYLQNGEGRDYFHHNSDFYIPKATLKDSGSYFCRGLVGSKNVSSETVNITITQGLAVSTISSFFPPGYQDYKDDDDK
Put plainly: ELISA: EpCAM coated, anti-EpCAM antibody captured, FLAG-tagged CD16V protein titrated from 10 µg/mL, anti-FLAG-HRP detection.
Description: as §1

In assay [3] the target is T3, CD16V_K128E_K131E (human, UniProt P08637 19-208).
T3 construct: Soluble FLAG-tagged mutant
T3 sequence (P08637 other isoform, or with tags, fused parts or gaps K128E K131E K128E K131E): as the sequence (P08637 other isoform, or with tags, fused parts or gaps K128E K131D K128E K131D) above, with D131E counted along it
The description is as above.
Description: as §1

Assay [4] has as its target T4, CD16V_K131D_N38Q (human, UniProt P08637 19-208).
T4 construct: Soluble FLAG-tagged mutant
The assay is described as above.
Description: as §1

Assay [5] addresses T5, CD16V_K131D_N74Q (human, UniProt P08637 19-208).
T5 construct: Soluble FLAG-tagged mutant
The assay is described as above.
Description: as §1

Assay [6] has as its target T6, CD16V_K131D (human, UniProt P08637 19-208).
T6 construct: Soluble FLAG-tagged mutant; also called K149D (AAH17865.1 numbering)
The description is as above.
Description: as §1

Assay [7] concerns the target T2, CD16V_K128E_K131D. Put plainly: ELISA: EpCAM coated, anti-EpCAM antibody captured, FLAG-tagged CD16V protein titrated, anti-FLAG-HRP detection. A general note: An ELISA detects its analyte on a solid surface through an enzyme-linked reagent.
Description: as §1
Assay [8] addresses T3, CD16V_K128E_K131E. Described as above.
Description: as §1
Assay [9] addresses T4, CD16V_K131D_N38Q. Described as above.
Description: as §1
For assay [10], the target named is T5, CD16V_K131D_N74Q. The description is as above.
Description: as §1
The target of assay [11] is T6, CD16V_K131D. The description is as above.
Description: as §1
The target of assay [12] is T1, CD16V protein (extracellular portion of …). Description: ELISA: EpCAM coated, anti-EpCAM antibody captured, FLAG-tagged CD16V protein titrated from 10 µg/mL, anti-FLAG-HRP detection.
Description: as §1

T6 sequence (P08637 other isoform, or with tags, fused parts or gaps K131D K131D): as the sequence (P08637 other isoform, or with tags, fused parts or gaps K128E K131D K128E K131D) above, with E128K counted along it
T1 sequence (P08637 other isoform, or with tags, fused parts or gaps): as the sequence (P08637 other isoform, or with tags, fused parts or gaps K128E K131D K128E K131D) above, with E128K, D131K counted along it
T5 sequence (P08637 other isoform, or with tags, fused parts or gaps K131D N74Q K131D N74Q): as the sequence (P08637 other isoform, or with tags, fused parts or gaps K128E K131D K128E K131D) above, with N74Q, E128K counted along it
T4 sequence (P08637 other isoform, or with tags, fused parts or gaps K131D N38Q K131D N38Q): as the sequence (P08637 other isoform, or with tags, fused parts or gaps K128E K131D K128E K131D) above, with N38Q, E128K counted along it

B1: Fc_RK type anti-EpCAM antibody (antibody, human IgG1, kappa)
heavy: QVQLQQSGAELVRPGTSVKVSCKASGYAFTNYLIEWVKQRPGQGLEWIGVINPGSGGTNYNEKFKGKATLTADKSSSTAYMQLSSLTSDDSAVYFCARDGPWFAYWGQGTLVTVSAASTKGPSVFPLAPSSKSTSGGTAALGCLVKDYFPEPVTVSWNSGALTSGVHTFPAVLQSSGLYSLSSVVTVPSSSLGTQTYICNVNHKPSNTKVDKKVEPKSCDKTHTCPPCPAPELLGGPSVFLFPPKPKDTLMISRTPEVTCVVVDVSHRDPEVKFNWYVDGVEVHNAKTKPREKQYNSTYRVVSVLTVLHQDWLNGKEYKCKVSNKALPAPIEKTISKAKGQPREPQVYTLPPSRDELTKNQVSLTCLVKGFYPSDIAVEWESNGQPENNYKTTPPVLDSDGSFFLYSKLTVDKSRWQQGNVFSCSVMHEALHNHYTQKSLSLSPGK
light: NIVMTQSPKSMSMSVGERVTLTCKASENVVTYVSWYQQKPEQSPKLLIYGASNRYTGVPDRFTGSGSATDFTLTISSVQAEDLADYHCGQGYSYPYTFGGGTKLEIKRTVAAPSVFIFPPSDEQLKSGTASVVCLLNNFYPREAKVQWKVDNALQSGNSQESVTEQDSKDSTYSLSSTLTLSKADYEKHKVYACEVTHQGLSSPVTKSFNRGEC
For the molecule B1, the binding result in assay [1] is given as “no binding (tested: CD16V protein up to 10 µg/mL)”; in the assay with CD16V_K128E_K131D [2] it was “binds”; with CD16V_K128E_K131E [3], “binds”; in the assay with CD16V_K131D_N38Q [4], “binds”; with CD16V_K131D_N74Q [5], “binds”; in the assay with CD16V_K131D [6], “binds”.

B2: Fc_wt type anti-EpCAM antibody (antibody, human IgG1, kappa)
heavy: not shown
light: B1 light
notes: also called edrecolomab variable regions on human Igγ1
For B2, the binding result is “no binding (tested: CD16V protein up to 10 µg/mL)” with CD16V_K128E_K131D [7]; “no binding (tested: CD16V protein up to 10 µg/mL)” with CD16V_K128E_K131E [8]; “no binding (tested: CD16V protein up to 10 µg/mL)” in the assay with CD16V_K131D_N38Q [9]; “no binding (tested: CD16V protein up to 10 µg/mL)” with CD16V_K131D_N74Q [10]; “no binding (tested: CD16V protein up to 10 µg/mL)” in the assay with CD16V_K131D [11]; “binds” in assay [12].

B3: Fc_RR type anti-EpCAM antibody (antibody, human IgG1, kappa)
heavy: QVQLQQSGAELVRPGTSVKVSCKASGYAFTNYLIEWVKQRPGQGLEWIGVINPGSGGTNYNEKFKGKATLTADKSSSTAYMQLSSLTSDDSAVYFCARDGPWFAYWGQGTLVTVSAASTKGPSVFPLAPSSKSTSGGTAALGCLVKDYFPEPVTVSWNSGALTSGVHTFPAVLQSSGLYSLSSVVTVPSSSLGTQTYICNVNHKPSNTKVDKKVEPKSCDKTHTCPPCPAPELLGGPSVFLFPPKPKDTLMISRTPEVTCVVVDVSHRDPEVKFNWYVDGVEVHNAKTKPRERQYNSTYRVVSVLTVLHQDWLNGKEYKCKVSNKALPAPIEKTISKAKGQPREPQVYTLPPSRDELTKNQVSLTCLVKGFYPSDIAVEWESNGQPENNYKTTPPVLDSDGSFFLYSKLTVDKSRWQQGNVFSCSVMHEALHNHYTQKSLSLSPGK
light: B1 light
Turning to B3, the binding result in assay [1] is “no binding (tested: CD16V protein up to 10 µg/mL)”; with CD16V_K128E_K131D [2], “binds”; in the assay with CD16V_K128E_K131E [3], “binds”; in the assay with CD16V_K131D_N38Q [4] it was “binds”; with CD16V_K131D_N74Q [5], “binds”; with CD16V_K131D [6], “binds”.
